Here are results for one molecule from paper PMC11164701.

The assay has as its target CpxA^QTY (water-soluble QTY-code variant of the sensor histidine kinase CpxA), his-tagged (E. coli) (UniProt P0AE82).

B1: periplasmic protein CpxP (natural protein)
chain: AEVGSGDNWHPGEELTQRSTQSHMFDGISLTEHQRQQMRDLMQQARHEQPPVNVSELETMHRLVTAENFDENAVRAQAEKMANEQIARQVEMAKVRNQMYRLLTPEQQAVLNEKHQQRMEQLRDVTQWQKSSSLKLLSSSNSRSQ
In turn, B1 returned an inhibition of the autokinase activity of CpxA^QTY (1 μM, 1 mM ATP, RT, 2 min, anti-pHis western blot) by different concentrations of CpxP; CpxP excess needed for inhibition by approximately half (fold (CpxP over kinase)) of 10.
